This is an account of results in ChEMBL document CHEMBL1136535, “Unexpected inhibition of S-adenosyl-L-homocysteine hydrolase by a guanosine nucleoside” (Bioorg Med Chem Lett, 2003).

Substrate in data set [1]: Nc1nc(O)cc(-c2cncn2C2O[C@H](CO)[C@@H](O)[C@H]2O)n1
The data set is described as follows: Enzyme kinetic constant for S-adenosyl-L-homocysteine hydrolase; Not a substrate.

Substrate in data set [2]: Nc1nc(O)cc(-c2cncn2C2O[C@H](CO)[C@@H](O)[C@H]2O)n1
The data set is described as follows: Enzyme kinetic constant for S-adenosyl-L-homocysteine hydrolase in hydrolysis direction.

Substrate in data set [3]: Nc1cc(-c2cncn2C2O[C@H](CO)[C@@H](O)[C@H]2O)ncn1
The experiment in a line: (§1) Enzyme kinetic constant for S-adenosyl-L-homocysteine hydrolase.

Substrate in data set [4]: Nc1nc2c(ncn2[C@@H]2O[C@H](CO)[C@@H](O)[C@H]2O)c(=O)[nH]1
Described as §1.

Substrate in data set [5]: Nc1ncnc2c1ncn2[C@@H]1O[C@H](CO)[C@@H](O)[C@H]1O
Described as §1.

Substrate in data set [6]: O=c1[nH]cnc2c1ncn2[C@@H]1O[C@H](CO)[C@@H](O)[C@H]1O
The data set is described as §1.

Substrate in data set [7]: OC[C@H]1OC(n2cncc2-c2cc(O)ncn2)[C@H](O)[C@@H]1O
The description is as §1.

B1: Adenosylhomocysteinase (Homo sapiens), P23526 (protein)
chain: MSDKLPYKVADIGLAAWGRKALDIAENEMPGLMRMRERYSASKPLKGARIAGCLHMTVETAVLIETLVTLGAEVQWSSCNIFSTQDHAAAAIAKAGIPVYAWKGETDEEYLWCIEQTLYFKDGPLNMILDDGGDLTNLIHTKYPQLLPGIRGISEETTTGVHNLYKMMANGILKVPAINVNDSVTKSKFDNLYGCRESLIDGIKRATDVMIAGKVAVVAGYGDVGKGCAQALRGFGARVIITEIDPINALQAAMEGYEVTTMDEACQEGNIFVTTTGCIDIILGRHFEQMKDDAIVCNIGHFDVEIDVKWLNENAVEKVNIKPQVDRYRLKNGRRIILLAEGRLVNLGCAMGHPSFVMSNSFTNQVMAQIELWTHPDKYPVGVHFLPKKLDEAVAEAHLGKLNVKLTKLTEKQAQYLGMSCDGPFKPDHYRY
For the protein B1, the Km (commonly the concentration of substrate that gives half-maximal velocity) is “Not a substrate” in data set [1]; 6.6 µM in data set [2]; 54.4 µM in data set [3]; 844 µM in data set [4]; 0.82 µM in data set [5]; 2.5 µM in data set [6]. Further, the Km in data set [7] is 421 µM.
